Assay results as given in paper PMC4344526.

What was measured:
[1] = test system: Csy complex (Csy1-4 + crRNA, Type I-F) (Pseudomonas aeruginosa PA14); assay: EMSA; settings: EMSA: 20 mM HEPES pH 7.5, 100 mM KCl, 5% glycerol, 1 mM TCEP, 2 mM EDTA, 37 C, 15 min (competition 5 min), SPR: 20 mM HEPES pH 7.5, 100 mM KCl, 0.02%
[2] = test system: Csy complex (Csy1-4 + crRNA, Type I-F) (Pseudomonas aeruginosa PA14); assay: SPR; settings: ka 1.9e7 M-1 s-1, half-life 6.3 s, same as non-target, EMSA Kd >2 orders higher, EMSA: 20 mM HEPES pH 7.5, 100 mM KCl, 5% glycerol, 1 mM TCEP, 2 mM EDTA, 37 C, 15 min (competition 5 min), SPR: 20 mM HEPES pH 7.5, 100 mM KCl, 0.02%

## dsDNA target, 7-deazaguanine PAM
[1]; both PAM guanines replaced by 7-deazaguanine
  binding signal (fold increase in Kd vs N1): 120

## dsDNA target, T-A/T-A PAM, duplexed (EMSA)
[1]
  binding signal (fold weaker vs N1): 100

## dsDNA target, inosine PAM
[1]; both PAM guanines replaced by inosine
  binding signal (fold increase in Kd vs N1): > 1000

## dsDNA target, protospacer + G-C/G-C PAM
[1]
  Kd: 1 nM

## dsDNA target, protospacer + T-A/T-A PAM (SPR)
[2]
  Kd: 6 nM

## ssDNA target, protospacer + GG PAM
[1]
  Kd: 0.5 nM
